Assay results reported in patent US20230340128A1 (Xencor, published 2023).
Like-named read-outs stand apart in the source and are kept apart here.

Experiments:
human mesothelin (MSLN) [1] = molecular target: T1, human mesothelin (MSLN) (human, UniProt Q13421 296-580, limits assumed); assay: BLI (Octet), multiple concentrations, bsAb in 1+1 Fab-scFv-Fc format; lower table, column 'human MSLN (M)'
T1 construct: Antigen of the Octet KD values

human mesothelin (MSLN) [2] = molecular target: T1, human mesothelin (MSLN); assay: BLI (Octet), bsAb in 1+1 Fab-scFv-Fc format
[3] = molecular target: T2, MSLN on OVCAR8 cells (~90K MSLN antigens/cell) (UniProt Q13421 296-598); assay: binding to OVCAR8 cells, MFI APC against mAb concentration
human mesothelin (MSLN) [4] = molecular target: T1, human mesothelin (MSLN); assay: KD quoted in the FIG. 25 legend; Octet (BLI) per FIGS. 20-21
[5] = molecular target: T2, MSLN on OVCAR8 cells (~90K MSLN …); assay: binding to OVCAR8 cells, MFI APC against mAb concentration; remark: listed apart in the source

Kd (human mesothelin (MSLN) [1]) [nM]	Kd (human mesothelin (MSLN) [2]) [nM]	Response (human mesothelin (MSLN) [2])	koff (human mesothelin (MSLN) [2]) [s⁻¹]	kon (human mesothelin (MSLN) [2]) [M⁻¹ s⁻¹]	EC50 (read off the curve) [3] [mg/L]	Kd (human mesothelin (MSLN) [4]) [nM]	EC50 (read off the curve) [5] [mg/L]	Binder
0.45	0.355	1.08	0.000215	606000	~0.2	–	–	XENP32561 (bispecific antibody) chain 1: QVQLVQSGAEVKKPGASVKVSCKASGYTFTSYWMHWVRQAPGQGLEWMGMIHPNSDNTIYYEKFQGRVTMTVDKSISTAYMELSRLRSDDTAVYYCAIIITPVVPKFDYWGQGTLVTVSSASTKGPSVFPLAPSSKSTSGGTAALGCLVKDYFPEPVTVSWNSGALTSGVHTFPAVLQSSGLYSLSSVVTVPSSSLGTQTYICNVNHKPSDTKVDKKVEPKSCDKTHTCPPCPAPPVAGPSVFLFPPKPKDTLMISRTPEVTCVVVDVKHEDPEVKFNWYVDGVEVHNAKTKPREEEYNSTYRVVSVLTVLHQDWLNGKEYKCKVSNKALPAPIEKTISKAKGQPREPQVYTLPPSREEMTKNQVSLTCDVSGFYPSDIAVEWESDGQPENNYKTTPPVLDSDGSFFLYSKLTVDKSRWEQGDVFSCSVMHEALHNHYTQKSLSLSPGK chain 2: not shown chain 3: DIVMTQSPDSLAVSLGERATINCKASHSVGTSVAWYQQKPGQSPKLLIYWASTRHTGVPDRFTGSGSGTDFTLTISSLQAEDVAVYFCQQYSSYPLTFGAGTKLEIKRTVAAPSVFIFPPSDEQLKSGTASVVCLLNNFYPREAKVQWKVDNALQSGNSQESVTEQDSKDSTYSLSSTLTLSKADYEKHKVYACEVTHQGLSSPVTKSFNRGEC
–	–	–	–	–	–	0.74	~0.04	XENP32748 (bispecific antibody) chain 1: QVQLVQSGAEVKKPGASVKVSCKASGYTFTSYWMHWVRQAPGQGLEWMGMIHPNSDNTIYYEKFQGRVTMTVDKSISTAYMELSRLRSDDTAVYYCAIIITPVVPKFDYWGQGTLVTVSSASTKGPSVFPLAPSSKSTSGGTAALGCLVKDYFPEPVTVSWNSGALTSGVHTFPAVLQSSGLYSLSSVVTVPSSSLGTQTYICNVNHKPSDTKVDKKVEPKSCDKTHTCPPCPAPPVAGPSVFLFPPKPKDTLMISRTPEVTCVVVDVKHEDPEVKFNWYVDGVEVHNAKTKPREEEYNSTYRVVSVLTVLHQDWLNGKEYKCKVSNKALPAPIEKTISKAKGQPREPQVYTLPPSREEMTKNQVSLTCDVSGFYPSDIAVEWESDGQPENNYKTTPPVLDSDGSFFLYSKLTVDKSRWEQGDVFSCSVMHEALHNHYTQKSLSLSPGK chain 2: QVQLVQSGAEVKKPGASVKVSCKASGYTFTSYWMHWVRQAPGQGLEWMGMIHPNSDNTIYYEKFQGRVTMTVDKSISTAYMELSRLRSDDTAVYYCAIIITPVVPKFDYWGQGTLVTVSSASTKGPSVFPLAPSSKSTSGGTAALGCLVKDYFPEPVTVSWNSGALTSGVHTFPAVLQSSGLYSLSSVVTVPSSSLGTQTYICNVNHKPSNTKVDKKVEPKSCGGGGSGGGGSQAVVTQEPSLTVSPGGTVTLTCGSSTGAVTTSNYANWVQQKPGKSPRGLIGGTNKRAPGVPARFSGSLLGGKAALTISGAQPEDEADYYCALWYSNHWVFGGGTKLTVLGKPGSGKPGSGKPGSGKPGSEVQLVESGGGLVQPGGSLRLSCAASGFTFSTYAMNWVRQAPGKGLEWVGRIRSKANNYATYYADSVKGRFTISRDDSKNTLYLQMNSLRAEDTAVYYCVRHGNFGDSYVSWFAYWGQGTLVTVSSGGGGSGGGGSKTHTCPPCPAPPVAGPSVFLFPPKPKDTLMISRTPEVTCVVVDVKHEDPEVKFNWYVDGVEVHNAKTKPREEQYNSTYRVVSVLTVLHQDWLNGKEYKCKVSNKALPAPIEKTISKAKGQPREPQVYTLPPSREQMTKNQVKLTCLVKGFYPSDIAVEWESNGQPENNYKTTPPVLDSDGSFFLYSKLTVDKSRWQQGNVFSCSVMHEALHNHYTQKSLSLSPGK chain 3: DIVMTQSPDSLAVSLGERATINCKASHDVLTSVAWYQQKPGQSPKLLIYWASTRHTGVPDRFTGSGSGTDFTLTISSLQAEDVAVYFCQQYSSYPLTFGAGTKLEIKRTVAAPSVFIFPPSDEQLKSGTASVVCLLNNFYPREAKVQWKVDNALQSGNSQESVTEQDSKDSTYSLSSTLTLSKADYEKHKVYACEVTHQGLSSPVTKSFNRGEC
–	–	–	–	–	~0.05	0.45	–	XENP32745 (bispecific antibody) chain 1: QVQLVQSGAEVKKPGASVKVSCKASGYTFTSYWMHWVRQAPGQGLEWMGMIHPNSDNTIYYEKFQGRVTMTVDKSISTAYMELSRLRSDDTAVYYCAIIITPVVPKFDYWGQGTLVTVSSASTKGPSVFPLAPSSKSTSGGTAALGCLVKDYFPEPVTVSWNSGALTSGVHTFPAVLQSSGLYSLSSVVTVPSSSLGTQTYICNVNHKPSDTKVDKKVEPKSCDKTHTCPPCPAPPVAGPSVFLFPPKPKDTLMISRTPEVTCVVVDVKHEDPEVKFNWYVDGVEVHNAKTKPREEEYNSTYRVVSVLTVLHQDWLNGKEYKCKVSNKALPAPIEKTISKAKGQPREPQVYTLPPSREEMTKNQVSLTCDVSGFYPSDIAVEWESDGQPENNYKTTPPVLDSDGSFFLYSKLTVDKSRWEQGDVFSCSVMHEALHNHYTQKSLSLSPGK chain 2: QVQLVQSGAEVKKPGASVKVSCKASGYTFTSYWMHWVRQAPGQGLEWMGMIHPNSDNTIYYEKFQGRVTMTVDKSISTAYMELSRLRSDDTAVYYCAIIITPVVPKFDYWGQGTLVTVSSASTKGPSVFPLAPSSKSTSGGTAALGCLVKDYFPEPVTVSWNSGALTSGVHTFPAVLQSSGLYSLSSVVTVPSSSLGTQTYICNVNHKPSNTKVDKKVEPKSCGGGGSGGGGSQAVVTQEPSLTVSPGGTVTLTCGSSTGAVTTSNYANWVQQKPGKSPRGLIGGTNKRAPGVPARFSGSLLGGKAALTISGAQPEDEADYYCALWYSNHWVFGGGTKLTVLGKPGSGKPGSGKPGSGKPGSEVQLVESGGGLVQPGGSLRLSCAASGFTFSTYAMNWVRQAPGKGLEWVGRIRSKANNYATYYADSVKGRFTISRDDSKNTLYLQMNSLRAEDTAVYYCVRHGNFGDSYVSWFAYWGQGTLVTVSSGGGGSGGGGSKTHTCPPCPAPPVAGPSVFLFPPKPKDTLMISRTPEVTCVVVDVKHEDPEVKFNWYVDGVEVHNAKTKPREEQYNSTYRVVSVLTVLHQDWLNGKEYKCKVSNKALPAPIEKTISKAKGQPREPQVYTLPPSREQMTKNQVKLTCLVKGFYPSDIAVEWESNGQPENNYKTTPPVLDSDGSFFLYSKLTVDKSRWQQGNVFSCSVMHEALHNHYTQKSLSLSPGK chain 3: DIVMTQSPDSLAVSLGERATINCKASHSVGTSVAWYQQKPGQSPKLLIYWASTRHTGVPDRFTGSGSGTDFTLTISSLQAEDVAVYFCQQYSSYPLTFGAGTKLEIKRTVAAPSVFIFPPSDEQLKSGTASVVCLLNNFYPREAKVQWKVDNALQSGNSQESVTEQDSKDSTYSLSSTLTLSKADYEKHKVYACEVTHQGLSSPVTKSFNRGEC
0.74	0.628	1.01	0.000409	651000	–	–	~0.2	XENP32562 (bispecific antibody) chain 1: QVQLVQSGAEVKKPGASVKVSCKASGYTFTSYWMHWVRQAPGQGLEWMGMIHPNSDNTIYYEKFQGRVTMTVDKSISTAYMELSRLRSDDTAVYYCAIIITPVVPKFDYWGQGTLVTVSSASTKGPSVFPLAPSSKSTSGGTAALGCLVKDYFPEPVTVSWNSGALTSGVHTFPAVLQSSGLYSLSSVVTVPSSSLGTQTYICNVNHKPSDTKVDKKVEPKSCDKTHTCPPCPAPPVAGPSVFLFPPKPKDTLMISRTPEVTCVVVDVKHEDPEVKFNWYVDGVEVHNAKTKPREEEYNSTYRVVSVLTVLHQDWLNGKEYKCKVSNKALPAPIEKTISKAKGQPREPQVYTLPPSREEMTKNQVSLTCDVSGFYPSDIAVEWESDGQPENNYKTTPPVLDSDGSFFLYSKLTVDKSRWEQGDVFSCSVMHEALHNHYTQKSLSLSPGK chain 2: not shown chain 3: DIVMTQSPDSLAVSLGERATINCKASHDVLTSVAWYQQKPGQSPKLLIYWASTRHTGVPDRFTGSGSGTDFTLTISSLQAEDVAVYFCQQYSSYPLTFGAGTKLEIKRTVAAPSVFIFPPSDEQLKSGTASVVCLLNNFYPREAKVQWKVDNALQSGNSQESVTEQDSKDSTYSLSSTLTLSKADYEKHKVYACEVTHQGLSSPVTKSFNRGEC
